Legend:
[1] = biological target: T1, recombinant cynomolgus monkey CD38-ECD-C-his protein (cynomolgus monkey, UniProt Q5VAN0 45-301); assay: SPR, Fab as analyte, captured cynomolgus CD38-his
T1 construct: made in house; Q5VAN0 residues 43-301 (residue 44 deleted) with C-terminal 6-His; also called cynomolgus monkey CD38-C-His; recombinant cynomolgus monkey CD38 protein

[2] = biological target: T2, Biotinylated Human CD38 Protein, Avitag, His Tag (Acrobiosystems CD8-H82E7) (human, UniProt P28907 43-300, biotinylated); assay: SPR, Fab as analyte, immobilised biotinylated human CD38;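 further: biacore T200 at 25 °C, single-cycle kinetics with Fab from 7.8 to 2000 nM, 3 min association then 5 min dissociation, fitted with a 1:1 Langmuir model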
T2 construct: bought protein; also called biotinylated recombinant human CD38 protein; human CD38-avi-his

[3] = biological target: T3, human CD3 on cells (HPB-ALL cells, primary human T cells) (human, UniProt P07766 23-207); assay: flow cytometry, human CD4+ T cells
T3 construct: whole, on cells; only the epsilon chain is written
T3 sequence (P07766 23-207): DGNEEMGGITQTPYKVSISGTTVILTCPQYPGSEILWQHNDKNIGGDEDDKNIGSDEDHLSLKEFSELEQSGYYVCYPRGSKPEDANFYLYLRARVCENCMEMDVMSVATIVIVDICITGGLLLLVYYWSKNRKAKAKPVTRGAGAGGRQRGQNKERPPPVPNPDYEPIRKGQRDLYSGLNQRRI

| binding result [1] | Kd [2] [nM] | Kd [1] [nM] | MFI at 800 nM [3] [MFI] | Binder |
| --- | --- | --- | --- | --- |
| no binding | 666 | – | – | Anti-CD38-UCP01-D1 Fab (Fab, V domains shown, Fab) VH: QVQLVQSGAEVKKPGSSVKVSCKASGGIFNGYLISWVRQAPGQGLEWMGGIIPVNGLADYAQKFQGRVTITADESTSTAYMELSSLRSEDTAVYYCARTIGRYIIAFDYWGQGTLVTVSS VL: not shown |
| – | 437 | 352 | – | Anti-CD38-UCP01-H1 Fab (Fab, V domains shown, Fab) VH: QVQLVQSGAEVKKPGSSVKVSCKASGDFFSGYAINWVRQAPGQGLEWMGRIIPLLGDTYYAQKFQGRVTITADESTSTAYMELSSLRSEDTAVYYCARSAAGWFAYWGQGTLVTVSS VL: not shown |
| – | 1850 | 672 | – | Anti-CD38-UCP03-H2 Fab (Fab, V domains shown, Fab) VH: QVQLVQSGAEVKKPGSSVKVSCKASGGEFSIYVISWVRQAPGQGLEWMGRVIPSTGDTNYAQKFQGRVTITADESTSTAYMELSSLRSEDTAVYYCARGKAYYSGWLAIWGQGTLVTVSS VL: not shown |
| – | 117 | 465 | – | Anti-CD38-UCP03-C3 Fab (Fab, V domains shown, Fab) VH: QVQLVQSGAEVKKPGSSVKVSCKASGGKFSNYAISWVRQAPGQGLEWMGRIIPQIGDAAYAQKFQGRVTITADESTSTAYMELSSLRSEDTAVYYCARASFLYYSYYFDYWGQGTLVTVSS VL: not shown |
| – | 1390 | 628 | – | Anti-CD38-UCP03-C2 Fab (Fab, V domains shown, Fab) VH: QVQLVQSGAEVKKPGSSVKVSCKASGGTFSNYAISWVRQAPGQGLEWMGGIIPAFGDAGYAQKFQGRVTITADESTSTAYMELSSLRSEDTAVYYCARGRVLYYSYYFDYWGQGTLVTVSS VL: not shown |
| – | 305 | 188 | – | Anti-CD38-UCP02-C3 Fab (Fab, V domains shown, Fab) VH: QVQLVQSGAEVKKPGSSVKVSCKASGDYFNNYAINWVRQAPGQGLEWMGRIIPFLDDANYAQKFQGRVTITADESTSTAYMELSSLRSEDTAVYYCARATSPLYSYYFDYWGQGTLVTVSS VL: not shown |
| – | 154 | 2.7 | – | Anti-CD38-UCP02-H1 Fab (Fab, V domains shown, Fab) VH: QVQLVQSGAEVKKPGSSVKVSCKASGDKFNTYAISWVRQAPGQGLEWMGGITPRYDYAHYAQKFQGRVTITADESTSTAYMELSSLRSEDTAVYYCARSWGFRAGYLDYWGQGTLVTVSS VL: not shown |
| – | 429 | 393 | – | Anti-CD38-UCP01-F1 Fab (Fab, V domains shown, Fab) VH: QVQLVQSGAEVKKPGSSVKVSCKASGGVFSLYTITWVRQAPGQGLEWMGSIIPLLGDPEYAQKFQGRVTITADESTSTAYMELSSLRSEDTAVYYCARYPYPYGSKYFDIWGQGTLVTVSS VL: not shown |
| – | 1710 | – | – | Anti-CD38-UCP02-B7 Fab (Fab, V domains shown, Fab) VH: EVQLVESGGGLVKPGGSLRLSCAASGFSFNEAWMTWVRQAPGKGLEWVGRIKSYSDGGYTGYAAPVKGRFTISRDDSKNTLYLQMNSLKTEDTAVYYCARSPGIPYHYFDVWGQGTLVTVSS VL: not shown |
| – | 14.2 | 14 | – | Anti-CD38-UCP02-F2 Fab (Fab, V domains shown, Fab) VH: QVQLVQSGAEVKKPGSSVKVSCKASGDVFSLLAIGWVRQAPGQGLEWMGRIIPSLDATHYAQKFQGRVTITADESTSTAYMELSSLRSEDTAVYYCARGRDVLRSYYFDIWGQGTLVTVSS VL: not shown |
| – | 142 | 11 | – | Anti-CD38-UCP03-H5 Fab (Fab, V domains shown, Fab) VH: QVQLVQSGAEVKKPGSSVKVSCKASGGLFSFYAISWVRQAPGQGLEWMGGIIPFFGEPQYAQKFQGRVTITADESTSTAYMELSSLRSEDTAVYYCARGSYRFDVWGQGTLVTVSA VL: not shown |
| – | 110 | 89 | – | Anti-CD38-UCP01-E2 FAB (Fab, V domains shown, Fab; also called anti-CD38-E2; anti-CD38-E2 Fab) VH: QVQLVQSGAEVKKPGSSVKVSCKASGGSFSNYAIGWVRQAPGQGLEWMGRIIPVFGSAHYAQKFQGRVTITADESTSTAYMELSSLRSEDTAVYYCARGLGYYLYSSYYFDIWGQGTLVTVSS VL: not shown |
| – | 192 | 33.5 | – | Anti-CD38-UCP02-D5 Fab (Fab, V domains shown, Fab) VH: QVQLVQSGAEVKKPGSSVKVSCKASGGIFSVHAIHWVRQAPGQGLEWMGEIIPVIGEADYAQKFQGRVTITADESTSTAYMELSSLRSEDTAVYYCAREQYYYALGGGFDYWGQGTLVTVSS VL: not shown |
| – | – | – | 133000 | Anti-CD3-C1-UCP01-H9 IgG1LALA (antibody, V domains shown, IgG1 LALA) VH: QVQLVQSGAEVKKPGSSVKVSCKASGGKFSRYAISWVRQAPGQGLEWMGGISPHVGYAEYAQKFQGRVTITADESTSTAYMELSSLRSEDTAVYYCARYGYSLYMDIWGQGTLVTVSS VL: not shown |
| – | – | – | 119000 | Anti-CD3-C1-UCP01-C11 IgG1LALA (antibody, V domains shown, IgG1 LALA) VH: QVQLVQSGAEVKKPGSSVKVSCKASGGKFSRYAISWVRQAPGQGLEWMGGINPHVGAPEYAQKFQGRVTITADESTSTAYMELSSLRSEDTAVYYCARYGYSLYMDIWGQGTLVTVSS VL: not shown |
| – | – | – | 82800 | Anti-CD3-C1-UCP01-E7 IgG1LALA (antibody, V domains shown, IgG1 LALA) VH: QVQLVQSGAEVKKPGSSVKVSCKASGGKFSRYAISWVRQAPGQGLEWMGGINPHLGEAEYAQKFQGRVTITADESTSTAYMELSSLRSEDTAVYYCARYGYSLYMDIWGQGTLVTVSS VL: not shown |

| binding result [1] | Kd [2] [nM] | Kd [1] [nM] | MFI at 800 nM [3] [MFI] | Binder |
| --- | --- | --- | --- | --- |
| – | – | – | 126000 | Anti-CD3-C1-UCP01-D4 IgG1LALA (antibody, V domains shown, IgG1 LALA) VH: QVQLVQSGAEVKKPGSSVKVSCKASGGKFSRYAISWVRQAPGQGLEWMGGINPIRGRPSYAQKFQGRVTITADESTSTAYMELSSLRSEDTAVYYCARYGYSLYMDIWGQGTLVTVSS VL: not shown |
| – | – | – | 178000 | Anti-CD3-C1-UCP01-D6 IgG1LALA (antibody, V domains shown, IgG1 LALA; also called anti-CD3-C1-D6; C1-D6) VH: QVQLVQSGAEVKKPGSSVKVSCKASGGKFSRYAISWVRQAPGQGLEWMGGITALGGYPNYAQKFQGRVTITADESTSTAYMELSSLRSEDTAVYYCARYGYSLYMDIWGQGTLVTVSS VL: not shown |
| – | – | – | 52800 | Anti-CD3-C1-UCP01-D1 IgG1LALA (antibody, V domains shown, IgG1 LALA) VH: QVQLVQSGAEVKKPGSSVKVSCKASGGKFSRYAISWVRQAPGQGLEWMGGINPLSDEAQYAQKFQGRVTITADESTSTAYMELSSLRSEDTAVYYCARYGYSLYMDIWGQGTLVTVSS VL: not shown |
| – | – | – | 109000 | Anti-CD3-C1-UCP01-B6 IgG1LALA (antibody, V domains shown, IgG1 LALA) VH: QVQLVQSGAEVKKPGSSVKVSCKASGGKFSRYAISWVRQAPGQGLEWMGGISPYQGYASYAQKFQGRVTITADESTSTAYMELSSLRSEDTAVYYCARYGYSLYMDIWGQGTLVTVSS VL: not shown |
| – | 300 | 195 | – | Anti-CD38-UCP03-E3 Fab (Fab, V domains shown, Fab) VH: QVQLVQSGAEVKKPGSSVKVSCKASGGSFSIYAISWVRQAPGQGLEWMGGIIPNSGDTDYAQKFQGRVTITADESTSTAYMELSSLRSEDTAVYYCARGPYDSYGESYFDYWGQGTLVTVSS VL: not shown |
| – | 225 | 829 | – | Anti-CD38-UCP03-B6 Fab (Fab, V domains shown, Fab) VH: QVQLVQSGAEVKKPGSSVKVSCKASGGHISNSAINWVRQAPGQGLEWMGRVIPVIDDAYYAQKFQGRVTITADESTSTAYMELSSLRSEDTAVYYCARSRGYYGSFYFDIWGQGTLVTVSS VL: not shown |
| – | 1120 | 283 | – | Anti-CD38-UCP01-G1 Fab (Fab, V domains shown, Fab) VH: QVQLVQSGAEVKKPGSSVKVSCKASGGGFSKYFITWVRQAPGQGLEWMGGVIPKIGYTSYAQKFQGRVTITADESTSTAYMELSSLRSEDTAVYYCARGSDDYASYSPLDSWGQGTLVTVSS VL: not shown |
| – | 389 | – | – | Anti-CD38-UCP02-F6 Fab (Fab, V domains shown, Fab) VH: EVQLLESGGGLVQPGGSLRLSCAASGFTFSFYDMSWVRQAPGKGLEWVSAVSLYGDETYYADSVKGRFTISRDNSKNTLYLQMNSLRAEDTAVYYCAREPVSYDYYGSYFDYWGQGTLVTVSS VL: not shown |
| – | 810 | 178 | – | Anti-CD38-UCP03-H3 Fab (Fab, V domains shown, Fab) VH: QVQLVQSGAEVKKPGSSVKVSCKASGGVFSQFPISWVRQAPGQGLEWMGGIIAGYGATEYAQKFQGRVTITADESTSTAYMELSSLRSEDTAVYYCARVYGGIDWGQGTLVTVSS VL: not shown |
| – | 71.1 | 55.2 | – | Anti-CD38-UCP02-F5 Fab (Fab, V domains shown, Fab) VH: QVQLVQSGAEVKKPGSSVKVSCKASGGVFSYYTISWVRQAPGQGLEWMGRIIPSLGATHYAQKFQGRVTITADESTSTAYMELSSLRSEDTAVYYCARSDSFYYAYYMDLWGQGTLVTVSS VL: not shown |
| – | 0.03 | – | – | Anti-CD38-UCP02-E5 Fab (Fab, V domains shown, Fab) VH: QVQLVQSGAEVKKPGSSVKVSCKASGGGFRHYFISWVRQAPGQGLEWMGGIIPAAATPYYAQKFQGRVTITADESTSTAYMELSSLRSEDTAVYYCARGYWHWFDYWGQGTLVTVSS VL: not shown |
| – | 85.3 | 53.5 | – | Anti-CD38-UCP01-C2 Fab (Fab, V domains shown, Fab) VH: QVQLVQSGAEVKKPGSSVKVSCKASGGYLGIYAISWVRQAPGQGLEWMGRIIPILGEADYAQKFQGRVTITADESTSTAYMELSSLRSEDTAVYYCARGGVWWDYWGQGTLVTVSS VL: not shown |
| – | 193 | 102 | – | Anti-CD38-UCP01-B1 Fab (Fab, V domains shown, Fab) VH: QVQLVQSGAEVKKPGSSVKVSCKASGGDFDQYYISWVRQAPGQGLEWMGRIIPTLGDSQYAQKFQGRVTITADESTSTAYMELSSLRSEDTAVYYCARAVIVSPYYYIYVFDVWGQGTLVTVSS VL: not shown |
| – | 133 | 78 | – | Anti-CD38-UCP02-D1 Fab (Fab, V domains shown, Fab) VH: QVQLVQSGAEVKKPGSSVKVSCKASGGDFDQYYISWVRQAPGQGLEWMGRIIPTLGDSQYAQKFQGRVTITADESTSTAYMELSSLRSEDTAVYYCARAVIVSPYYYIYVFDVWGQGTLVTVSS VL: not shown |
| – | 410 | 525 | – | Anti-CD38-UCP03-A6 Fab (Fab, V domains shown, Fab) VH: QVQLVQSGAEVKKPGSSVKVSCKASGGDFSLYAISWVRQAPGQGLEWMGGIIPLLGEPVYAQKFQGRVTITADESTSTAYMELSSLRSEDTAVYYCARGHRVYSSSPFDYWGQGTLVTVSS VL: not shown |
